Laboratory results as given in US20150099282A1, “NADP-DEPENDENT ALANINE DEHYDROGENASE” (EVONIK INDUSTRIES AG, priority 2012, published 2015).

B1: Bacillus subtilis alanine dehydrogenase (BasAlaDH), wild type (N-terminal His6-tag) (Bacillus subtilis subsp. subtilis str. 168) (protein)
chain: MIIGVPKEIKNNENRVALTPGGVSQLISNGHRVLVETGAGLGSGFENEAYESAGAEIIADPKQVWDAEMVMKVKEPLPEEYVYFRKGLVLFTYLHLAAEPELAQALKDKGVTAIAYETVSEGRTLPLLTPMSEVAGRMAAQIGAQFLEKPKGGKGILLAGVPGVSRGKVTIIGGGVVGTNAAKMAVGLGADVTIIDLNADRLRQLDDIFGHQIKTLISNPVNIADAVAEADLLICAVLIPGAKAPTLVTEEMVKQMKPGSVIVDVAIDQGGIVETVDHITTHDQPTYEKHGVVHYAVANMPGAVPRTSTIALTNVTVPYALQIANKGAVKALADNTALRAGLNTANGHVTYEAVARDLGYEYVPAEKALQDESSVAGA
B2: Bacillus subtilis alanine dehydrogenase (BasAlaDH) variant D196A/L197R (Asp196Ala, Leu197Arg), SEQ ID No. 1 (with His-Tag: SEQ ID No. 22) (Bacillus subtilis … (protein)
chain: MASRGSHHHHHHGAIIGVPKEIKNNENRVALTPGGVSQLISNGHRVLVETGAGLGSGFENEAYESAGAEIIADPKQVWDAEMVMKVKEPLPEEYVYFRKGLVLFTYLHLAAEPELAQALKDKGVTAIAYETVSEGRTLPLLTPMSEVAGRMAAQIGAQFLEKPKGGKGILLAGVPGVSRGKVTIIGGGVVGTNAAKMAVGLGADVTIIARNADRLRQLDDIFGHQIKTLISNPVNIADAVAEADLLICAVLIPGAKAPTLVTEEMVKQMKPGSVIVDVAIDQGGIVETVDHITTHDQPTYEKHGVVHYAVANMPGAVPRTSTIALTNVTVPYALQIANKGAVKALADNTALRAGLNTANGHVTYEAVARDLGYEYVPAEKALQDESSVAGA

Key:
Format in all cases: biochemical, Bacillus subtilis
[1] = substrate: NC(=O)C1=CN([C@@H]2O[C@H](COP(=O)(O)OP(=O)(O)OC[C@H]3O[C@@H](n4cnc5c(N)ncnc54)[C@H](OP(=O)(O)O)[C@@H]3O)[C@@H](O)[C@H]2O)C=CC1; assay: KM and kcat for NADH/NADPH, reductive amination of pyruvate, wild type BasAlaDH; conditions: other: reductive amination of pyruvate, 5 mM pyruvate, 200 mM ammonium acetate, 10-500 μM NADPH, 0.5 μM enzyme, Hepes/NaOH pH 8.3, 30.0 °C
Description: (§1) The gene of the Bacillus subtilis AlaDH (SEQ ID No. 4) was amplified from the plasmid pUC18-AlaDH by polymerase chain reaction (PCR) using the oligodeoxy nucleotides AlaDHfw (SEQ ID No. 11) and AlaDHrv (SEQ ID No. 12), cleaved at the 3′ end using the restriction enzyme KpnI and ligated with the expression vector pASK-IBA35(+) (IBA GmbH, Göttingen) which had been cleaved with the restriction enzymes EheI and KpnI. The resulting expression plasmid pASK-IBA35(+)-AlaDH on which the BasAlaDH with an N-terminal His6-tag is encoded was verified by means of analytical restriction digestion and DNA sequencing. The plasmid which codes for the enzyme variant D196A/L197R was generated by site-directed mutagenesis using the oligodeoxy nucleotides AlaDH_D196A/L197Rfw (SEQ ID No. 13) and AlaDH_D196A/L197Rrv (SEQ ID No. 14), using the QuikChange method. The resulting expression plasmid pASK-IBA35(+)-AlaDH(D196A/L197R) was verified by means of DNA sequencing.
(§2) The expression plasmids for the BasAlaDH and its variant D196A/L197R were subsequently used for transforming E. coli BL21 (Sambrook et al. (2001) Molecular cloning: a laboratory manual, 3rd edition. Cold Spring Harbor Laboratory Press). Gene expression was induced in each case in LB medium (Sambrook et al. 2001) supplemented with 100 μg/ml ampicillin (2 L culture volume in a 5-l shake flask) at 30° C. in the exponential growth phase at OD550=0.5 by addition of 0.2 μg/ml anhydrotetracyclin (aTc; Acros, Geel, Belgium). After an induction time of 3 hours, the culture was harvested, and the cells were taken up in 40 mM Hepes/NaOH pH 7.5, 0.5 M NaCl and disrupted mechanically in a French press homogenizer (G. Heinemann, Schwäbisch Gmünd). The clear supernatant was applied to a Chelating Sepharose™ Fast Flow column loaded with Zn^2+ (bed volume 2.8 ml; GE Healthcare, Munich), and the enzymes with His6-tag fusion were eluted using a linear imidazole/HCl concentration gradient of from 0 to 500 mM in 40 mM Hepes/NaOH pH 7.5, 0.5 M NaCl. The elution fractions were concentrated by ultrafiltration and purified chromatographically by means of gel filtration on Superdex200 (GE Healthcare) in the presence of 25 mM Hepes/NaOH pH 8.3.
(§3) The Michaelis constant (KM) and the turnover number (kcat) of the two purified enzymes for the cosubstrates NADH and NADPH were determined with the aid of reductive amination of pyruvate, and the catalytic efficiency (kcat/KM) was calculated (Table 1).

[2] = substrate: NC(=O)C1=CN([C@@H]2O[C@H](COP(=O)(O)OP(=O)(O)OC[C@H]3O[C@@H](n4cnc5c(N)ncnc54)[C@H](O)[C@@H]3O)[C@@H](O)[C@H]2O)C=CC1; assay: as above; conditions: other: reductive amination of pyruvate, 5 mM pyruvate, 200 mM ammonium acetate, 10-500 μM NADH, 0.5 μM enzyme, Hepes/NaOH pH 8.3, 30.0 °C
Description: as §1, §2, §3

[3] = substrate: NC(=O)C1=CN([C@@H]2O[C@H](COP(=O)(O)OP(=O)(O)OC[C@H]3O[C@@H](n4cnc5c(N)ncnc54)[C@H](OP(=O)(O)O)[C@@H]3O)[C@@H](O)[C@H]2O)C=CC1; assay: KM and kcat for NADH/NADPH, reductive amination of pyruvate, BasAlaDH mutant D196A/L197R; conditions: other: reductive amination of pyruvate, 5 mM pyruvate, 200 mM ammonium acetate, 10-500 μM NADPH, 0.5 μM enzyme, Hepes/NaOH pH 8.3, 30.0 °C
Description: (§4) The conserved aspartate residue was the starting point for constructing the BasAlaDH enzyme variants D196A/L197R, with the SheAlaDH structure being used as template. […] As a result of the substitution L197R, the new cosubstrate specificity is favoured further as the result of the formation of salt bridges between the introduced arginine residue and the NADPH phosphate group.
as §1, §2, §3

[4] = substrate: NC(=O)C1=CN([C@@H]2O[C@H](COP(=O)(O)OP(=O)(O)OC[C@H]3O[C@@H](n4cnc5c(N)ncnc54)[C@H](O)[C@@H]3O)[C@@H](O)[C@H]2O)C=CC1; assay: as above; conditions: other: reductive amination of pyruvate, 5 mM pyruvate, 200 mM ammonium acetate, 10-500 μM NADH, 0.5 μM enzyme, Hepes/NaOH pH 8.3, 30.0 °C
Description: as §4, §1, §2, §3

Protein | Km [1] [µM] | kcat [1] [s⁻¹] | kcat/Km [1] [μM^−1/min^−1] | Km [2] [µM] | kcat [2] [s⁻¹] | kcat/Km [2] [μM^−1/min^−1] | Km [3] [µM] | kcat [3] [s⁻¹] | kcat/Km [3] [μM^−1/min^−1] | Km [4] [µM] | kcat [4] [s⁻¹] | kcat/Km [4] [μM^−1/min^−1]
B1 | 448 ± 135 | 11.1 ± 1.9 | 1.5 | 14 ± 2 | 14 ± 0.35 | 59.9 | – | – | – | – | – | –
B2 | – | – | – | – | – | – | 32 ± 3 | 28.83 ± 0.65 | 54.1 | 887 ± 360 | 44.48 ± 12 | 3.0
